From patent publication US20210252159A1, “CONJUGATES OF CARTILAGE-HOMING PEPTIDES” (priority 2018, published 2021)
Positions of bridges follow the written chain, without caps; N, C: chain ends. Residues, ends and D or L forms follow the SMILES beside them. *: point of attachment. X1 = CC(CCC(C)C(=O)*)C(=O)OCC(=O)[C@@]1(O)[C@H](C)C[C@H]2[C@@H]3CCC4=CC(=O)C=C[C@]4(C)[C@@]3(F)[C@@H](O)C[C@@]21C

What was measured:
[1] = Hydrolysis assay of peptide-drug conjugates in human plasma (free Dex by LC/MS); format: in vitro ADME; conditions: 37° C., release of free Dex, time points to 32 hr, read-out: Half-life (hours) as measured in the hydrolysis experiments (converted)
Procedure: In order to determine hydrolysis rates, conjugates can be diluted in PBS, rat plasma, or human plasma and incubated at 37 degrees. Samples can be taken at designated time-points (e.g., 1, 2, 3, 5, 10, 15, 20, 25, 30, 45, 60, or 90 minutes and/or hours after administration). Internal standards such as triamcinolone acetonide (TAA) can be added as an internal standard, and then active agent/TAA can be extracted using acetonitrile, for example. The samples can be dried down, reconstituted, and analyzed by LC/MS. Data can be normalized using Dex AUC/TAA AUC. Percent hydrolysis can be calculated using the average ratio for active agent AUC/TAA AUC at a time point of maximal drug release. A general method can include using a lyophilized, purified peptide-drug conjugates reconstituted in DMSO following production to generate stock solution at 20 mg/mL. Each conjugate stock can be brought to 0.25 mg/mL in each hydrolysis condition (1×DPBS, human plasma and rat plasma) in triplicate and rocked at 37° C. To quantitate free active agent, 100 μl of the hydrolyzed conjugate solution can be transferred into 1 mL acetonitrile at 4° C. at which time all plasma proteins and intact conjugates can precipitate. This can be performed repeatedly to generate a series of time points (0 hr, 0.5 hr, 1 hr, 2 hr, 4 hr, 6 hr, 8 hr, 24 hr, 32 hr). The acetonitrile solution can be spun at 17,000 g for 5 minutes, and the supernatant removed and added to a 96 well block. The pellet can then be resuspended in 500 μl acetonitrile and re-pelleted as before. The supernatant can be removed and added to the same well in the block. Samples can be prepared for analysis by drying under a nitrogen stream followed by reconstitution in 110 μl 45:55 ACN:Citrate 10 mM pH 5.5. […] Quantification of free active agent (or drug) can be achieved through integration of active agent peaks of the TIC. […]
To quantitate free dexamethasone (Dex), 100 μl of the hydrolyzed conjugate solution was transferred into 1 mL acetonitrile at 4° C. at which time all plasma proteins and intact conjugates precipitated. […]

CIA rats = format: in vivo; conditions: 0.05 mg/kg on study day 0 and day 1
Procedure: A study was conducted in CIA rats to address the following: 1) functionality and duration of effect for peptide(SEQ ID NO: 105)-carbamate-Dex at 0.2 mg/kg as compared to Dex alone at the same dose; 2) functionality and duration of effect for peptide(SEQ ID NO: 105)-DMA-Dex at 0.05 mg/kg as compared to Dex alone at the same dose; 3) systemic markers of Dex exposure in rats treated with each PDC and Dex at their respective doses (FIG. 16B-FIG. 16G).
CIA was induced as described above in EXAMPLE 21. Rats were enrolled in the study following onset of arthritis in at least one ankle and randomly assigned into one of five treatment groups (vehicle; peptide-carbamate 0.2 mg/kg; Dex 0.2 mg/kg; peptide-DMA conjugate 0.05 mg/kg; Dex 0.05 mg/kg) with 5 rats per group. Treatment was administered on study day 0 and study day 1 and rats were euthanized on study day 7. The primary read-out in this cohort was change in ankle diameter during and after treatment, as a measure of functionality and duration of effect. […] The primary read-out for this cohort was measures of systemic exposure to Dex which included thymus weight, spleen weight, total white blood cell counts, lymphocyte counts, and change in body weight.

CC[C@H](C)[C@@H]1NC(=O)[C@@H]2CSSC[C@H](NC(=O)[C@H](CCCNC(=N)N)NC(=O)[C@@H](NC(=O)[C@H](CC(N)=O)NC(=O)[C@@H](NC(=O)[C@@H]3CCCN3C(=O)[C@@H](NC(=O)CNC(=O)[C@H](CO)NC(=O)CNC(=O)C(C)CCC(C)C(=O)OCC(=O)[C@@]3(O)[C@H](C)C[C@H]4[C@@H]5CCC6=CC(=O)C=C[C@]6(C)[C@@]5(F)[C@@H](O)C[C@@]43C)C(C)C)[C@@H](C)CC)C(C)C)C(=O)N[C@@H](CCCNC(=N)N)C(=O)NCC(=O)N[C@@H](CO)C(=O)N[C@@H](CCCNC(=N)N)C(=O)N[C@@H](CC(=O)O)C(=O)N[C@H]3CSSC[C@H](NC(=O)[C@H](CCCNC(=N)N)NC(=O)[C@H](CO)NC(=O)[C@H](CC(N)=O)NC1=O)C(=O)N[C@@H](Cc1c[nH]cn1)C(=O)N[C@H](C(=O)N[C@H](C(=O)N1CCC[C@H]1C(=O)O)[C@@H](C)O)CSSC[C@H](NC(=O)[C@@H]1CCCN1C(=O)[C@H](CC(=O)O)NC(=O)[C@H](CC(C)C)NC3=O)C(=O)N[C@@H](CCCNC(=N)N)C(=O)N[C@@H](CCCNC(=N)N)C(=O)N[C@@H](C)C(=O)NCC(=O)N[C@@H](CCSC)C(=O)N[C@@H](CCCNC(=N)N)C(=O)N[C@@H](Cc1ccccc1)C(=O)NCC(=O)N[C@@H](CCCNC(=N)N)C(=O)N2 (some centres unmarked) [Compound 27, peptide(SEQ ID NO: 105)-[dimethyladipic acid]-Dex] (X1-GSGVPINVRCRGSRDCLDPCRRAGMRFGRCINSRCHCTP-OH; disulfide 10-30, 16-35, 20-37 (inferred); C-terminus assumed)
half-life at 0.25 mg/mL [1]: 22.4 h
ankle diameter as compared to vehicle; magnitude and duration of effect (CIA rats): significant reduction
